From patent US20040259770A1, “Method for determining leukocyte activation” (Rush University Medical Center, priority 2003, published 2004)
Where two headings read alike, the source gives them in different places.

B1: immobilized lactoferrin: human milk lactoferrin (Sigma) coated on tissue culture wells overnight at 4° C (protein, UniProt P02788 20-710, looked up)
Lactotransferrin: GRRRSVQWCAVSQPEATKCFQWQRNMRKVRGPPVSCIKRDSPIQCIQAIAENRADAVTLDGGFIYEAGLAPYKLRPVAAEVYGTERQPRTHYYAVAVVKKGGSFQLNELQGLKSCHTGLRRTAGWNVPIGTLRPFLNWTGPPEPIEAAVARFFSASCVPGADKGQFPNLCRLCAGTGENKCAFSSQEPYFSYSGAFKCLRDGAGDVAFIRESTVFEDLSDEAERDEYELLCPDNTRKPVDKFKDCHLARVPSHAVVARSVNGKEDAIWNLLRQAQEKFGKDKSPKFQLFGSPSGQKDLLFKDSAIGFSRVPPRIDSGLYLGSGYFTAIQNLRKSEEEVAARRARVVWCAVGEQELRKCNQWSGLSEGSVTCSSASTTEDCIALVLKGEADAMSLDGGYVYTAGKCGLVPVLAENYKSQQSSDPDPNCVDRPVEGYLAVAVVRRSDTSLTWNSVKGKKSCHTAVDRTAGWNIPMGLLFNQTGSCKFDEYFSQSCAPGSDPRSNLCALCIGDEQGENKCVPNSNERYYGYTGAFRCLAENAGDVAFVKDVTVLQNTDGNNNEAWAKDLKLADFALLCLDGKRKPVTEARSCHLAMAPNHAVVSRMDKVERLKQVLLHQQAKFGRNGSDCPDKFCLFQSETKNLLFNDNTECLARLHGKTTYEKYLGPQYVAGITNLKKCSTSPLLEACEFLRK
modifications: immobilized
notes: human milk lactoferrin (Sigma) coated on tissue culture wells overnight at 4° C
B2: lactoferrin: 78-80 kilodalton multifunctional glycoprotein of external secretions and neutrophil secondary granules (protein, UniProt P02788 20-710, looked up)
Lactotransferrin: B1 Lactotransferrin

Experiments:
eosinophils [1] = experiment: Eosinophil leukotriene C4 production by ELISA; assay type: cell-based, human; details: 1 hour
Method: Eosinophils (2×10^5) were incubated in the presence and absence of 100 pg/ml GM-CSF in RPMI 1640 containing 10 mM HEPES for 1 hr at 37° C. in tissue culture wells precoated with lactoferrin or secretory IgA as above with one modification. The tissue culture wells were not treated with HSA and HSA was not added to the incubation buffer to minimize loss of leukotriene C4. Total incubation volume was 0.2 ml. Reactions were stopped by centrifugation at 300 g for 5 min at 4° C., and supernatants were stored at −20° C. until measurement of leukotriene C4 content by a leukotriene C4/D4/E4 ELISA (Amersham Pharmacia Biotech; Piscataway, N.J.). Spontaneous leukotriene C4 production was determined with eosinophils incubated in untreated tissue culture wells.

eosinophils [2] = experiment: Eosinophil superoxide production (cytochrome c reduction) in protein-coated tissue culture wells; assay type: cell-based, human
Method: Neutrophils were isolated from venous blood of healthy adult volunteers by density gradient centrifugation through lymphocyte separation medium (BioWhittaker; Walkersville, Md.) as described previously (Haskell M. D., et al., Blood 86:4627-4637 (1995)) with one modification. Isotonicity was restored following the brief hypotonic lysis steps by the addition of 2× concentrated Hank's Balanced Salt Solution (HBSS) (Gibco; Grand Island, N.Y.) (without Ca^2+ and Mg^2+) containing 5 mM HEPES, pH 7.4. The cells were suspended in HEPES (10 mM)-buffered HBSS (with Ca^2+ and Mg^2+), pH 7.4, containing 1 milligram per milliliter of human serum albumin (HSA) (Sigma Chemical Co.) (HEPES-HBSS-HSA buffer). Neutrophil purity was routinely greater than 95 percent, with eosinophils representing the remainder of the cells. Eosinophils were isolated from the neutrophil preparations by negative selection (Hansel T. T., et al., J. Immunol. Meth. 145:105-10 (1991)) using anti-CD16 immunomagnetic beads as described by the manufacturer (Miltenyi Biotec, Inc., Auburn, Calif.). The eosinophils were suspended in HEPES-HBSS-HSA buffer. Eosinophil purity was routinely greater than 95 percent as determined by counting Wright-stained cytospin preparations. In some assays, an aliquot of the neutrophil preparation was held on ice for later use.
Superoxide production was measured essentially as described elsewhere (Motegi, Y., and H. Kita, J. Immunol. 161:4340 (1998)). Briefly, wells in a 96-well (flat bottom) tissue culture plate (Corning, Inc.; Corning, N.Y.) were coated with human milk lactoferrin (Sigma Chemical Co.) or human secretory IgA (ICN Biomedical; Aurora, Ohio) by incubation with 50 microliters of the indicated concentrations of the proteins in phosphate buffered saline (PBS) overnight at 4° C. Non-specific protein binding sites were blocked by subsequent incubation with 100 microliters of 25 milligrams per milliliter of HSA in PBS for 2 hours at 37° C., and the tissue culture wells were washed twice with PBS before use. Aliquots (5×10^4 cells) of eosinophils or neutrophils were added to the wells and were incubated in HEPES-HBSS—HSA buffer containing 50 micromolar cytochrome c (Sigma Chemical Co.) for 120 minutes at 37° C. in a Ceres UV900HDi microplate reader (Bio-Tek Instruments, Inc., Winooski, Vt.). Total incubation volume was 0.2 milliliters. Absorbance at 550 nanometers was recorded at 15-minute intervals, and superoxide production was calculated as described previously (Motegi, Y., and H. Kita, J. Immunol. 161:4340 (1998)). Results are expressed as nanomoles superoxide per 10^5 cells after subtraction of spontaneous production, which was measured in tissue culture wells coated only with HSA. GM-CSF (R & D Systems; Minneapolis, Minn.), porcine heparin (Sigma Chemical Co.), or chondroitin sulfate C (Sigma Chemical Co.) was added to the incubation mixtures in some assays as indicated.

eosinophils [3] = experiment: Eosinophil degranulation: EDN release by ELISA; assay type: cell-based, human; details: 3 to 100 micrograms per milliliter immobilized, 4 hours at 37° C, maximum at 100 micrograms per milliliter
Method: Eosinophils (2×10^5) were incubated in the presence and absence of 100 picograms per milliliter of GM-CSF in RPMI 1640 containing 1 milligram per milliliter of HSA for 4 hours at 37° C. in 5 percent CO2 in tissue culture wells precoated with lactoferrin or secretory IgA as above. Total incubation volume was 0.2 milliliters. Reactions were stopped by centrifugation at 300 g for 5 minutes at 4° C., and supernatants were stored at −20° C. until measurement of eosinophil-derived neurotoxin (EDN) content by specific ELISA (MBL International, Watertown, Mass.). Spontaneous release of EDN was determined with cells incubated in HSA-coated wells.

neutrophils = experiment: Neutrophil superoxide production (cytochrome c reduction) in protein-coated tissue culture wells; assay type: cell-based, human
Method: Neutrophils were isolated from venous blood of healthy adult volunteers by density gradient centrifugation through lymphocyte separation medium (BioWhittaker; Walkersville, Md.) as described previously (Haskell M. D., et al., Blood 86:4627-4637 (1995)) with one modification. Isotonicity was restored following the brief hypotonic lysis steps by the addition of 2× concentrated Hank's Balanced Salt Solution (HBSS) (Gibco; Grand Island, N.Y.) (without Ca^2+ and Mg^2+) containing 5 mM HEPES, pH 7.4. The cells were suspended in HEPES (10 mM)-buffered HBSS (with Ca^2+ and Mg^2+), pH 7.4, containing 1 milligram per milliliter of human serum albumin (HSA) (Sigma Chemical Co.) (HEPES-HBSS-HSA buffer). […] Eosinophil purity was routinely greater than 95 percent as determined by counting Wright-stained cytospin preparations. […]
Superoxide production was measured essentially as described elsewhere (Motegi, Y., and H. Kita, J. Immunol. 161:4340 (1998)). […] Aliquots (5×10^4 cells) of eosinophils or neutrophils were added to the wells and were incubated in HEPES-HBSS—HSA buffer containing 50 micromolar cytochrome c (Sigma Chemical Co.) for 120 minutes at 37° C. in a Ceres UV900HDi microplate reader (Bio-Tek Instruments, Inc., Winooski, Vt.). […] Results are expressed as nanomoles superoxide per 10^5 cells after subtraction of spontaneous production, which was measured in tissue culture wells coated only with HSA. […]

[4] = test system: lactoferrin receptor on neutrophils; details: Boxer et al. 1982, cited from earlier work
eosinophils [5] = experiment: Flow cytometric analysis of binding of lactoferrin by eosinophils; design: species or system human
Method: Eosinophils (10^6 cells) were incubated with or without the indicated concentrations of lactoferrin in 100 microliters of HEPES-HBSS-HSA buffer for 90 minutes at 4° C. The cells were collected by centrifugation at 300 g for 5 minutes at 4° C., and then incubated with 1.5 micrograms FITC-conjugated polyclonal anti-lactoferrin (Sigma Chemical Co.) or FITC-conjugated rabbit IgG (Sigma Chemical Co.) in 25 microliters PBS (pH 7.2) containing 0.1 percent gelatin and 0.1 percent azide (PBS-gel-azide) for 30 minutes on ice. The cells were washed twice in ice-cold PBS-gel-azide and were suspended in PBS-gel-azide buffer containing 1 percent formaldehyde for analysis by flow cytometry. Fluorescence intensity of 10,000 cells in each sample was measured using a FACScan flow cytometer (Becton-Dickinson; San Jose, Calif.).

Row | Molecule | leukotriene C4 production (in words) (eosinophils [1]; 3 to 100 micrograms per milliliter immobilized, no GM-CSF) | leukotriene C4 production (eosinophils [1]; 10 micrograms per milliliter immobilized lactoferrin alone) | leukotriene C4 production (eosinophils [1]; 10 micrograms per milliliter immobilized lactoferrin together with 100 picograms per milliliter GM-CSF) | stimulation of eosinophil superoxide production (in words) (eosinophils [2]; 1 to 100 micrograms per milliliter of the protein, 2 hours at 37° C) | concentration giving maximum (peak) superoxide production (eosinophils [2]; 2-hour time point, absence of GM-CSF) | superoxide production with immobilized lactoferrin and immobilized secretory IgA in combination (eosinophils [2]; 3 or 10 micrograms per milliliter lactoferrin plus 1 or 3 micrograms per milliliter secretory IgA, n=4) | maximum response of superoxide production (eosinophils [2]; 30 micrograms per milliliter immobilized, 2-hour time point, five assays, corrected for spontaneous production) | eosinophil superoxide production (eosinophils [2]; 30 micrograms per milliliter immobilized, Example 3 assays (same donors as neutrophils), spontaneous value subtracted) | stimulation of eosinophil superoxide production (in words) (eosinophils [2]; immobilized at concentrations less than 3 micrograms per milliliter) | potency relative to immobilized secretory IgA (eosinophils [2]; superoxide production, same assays) | net release of EDN (eosinophils [3]) | stimulation of neutrophil superoxide production (in words) (neutrophils; 1 to 100 micrograms per milliliter immobilized, up to 2 hours) | neutrophil superoxide production as percent of eosinophil superoxide production stimulated by 30 micrograms per milliliter immobilized lactoferrin (neutrophils; 100 microgram per milliliter immobilized lactoferrin) | Kd ([4]; read-out: dissociation constant of lactoferrin receptor described for neutrophils) | Kd ([4]; read-out: dissociation constant of lactoferrin receptor described on neutrophils) | fluorescence intensity with FITC-conjugated anti-lactoferrin antibody (eosinophils [5]; 30 micrograms per milliliter soluble lactoferrin, 90 minutes at 4° C) | fluorescence intensity with FITC-conjugated anti-lactoferrin antibody (eosinophils [5]; 100 micrograms per milliliter lactoferrin) | lactoferrin concentration at which binding by eosinophils is saturated (eosinophils [5]; flow cytometry analysis, approximately 0.4 micromolar)
1 | B1 | stimulated only low levels of leukotriene C4 | 115 picograms leukotriene C4 per 10^6 eosinophils | 955 picograms leukotriene C4 per 10^6 eosinophils | stimulated marked superoxide production | 30 micrograms per milliliter | additive levels of superoxide production | approximately 5 nanomoles superoxide per 10^5 eosinophils | 5.5±1.4 nanomoles per 10^5 eosinophils | did not appear to stimulate superoxide production | approximately one-third | ≤ 1000 nanograms of EDN per 10^6 eosinophils | did not produce significant superoxide production | 25% | – | – | – | – | –
2 | B2 | – | – | – | – | – | – | – | – | – | – | – | – | – | ~200 nM | ~200 nM | marked increase in the fluorescence intensity | did not produce any further increase in the level of fluorescence intensity | 30 micrograms per milliliter
